Experimental data taken from PMC3295232 (Journal of the American Chemical Society, 2012).
Where a chain is given by its changes, count along the chain named. Names may count otherwise. Where two headings read alike, the source gives them in different places. Marks after values point to notes of the source that are not given here.

B1: E51D: variant at the indicated position of YPDC (protein, UniProt P06169 2-563, looked up, variant E51D)
Pyruvate decarboxylase …: SEITLGKYLFERLKQVNVNTVFGLPGDFNLSLLDKIYEVEGMRWAGNANDLNAAYAADGYARIKGMSCIITTFGVGELSALNGIAGSYAEHVGVLHVVGVPSISAQAKQLLLHHTLGNGDFTVFHRMSANISETTAMITDIATAPAEIDRCIRTTYVTQRPVYLGLPANLVDLNVPAKLLQTPIDMSLKPNDAESEKEVIDTILALVKDAKNPVILADACCSRHDVKAETKKLIDLTQFPAFVTPMGKGSIDEQHPRYGGVYVGTLSKPEVKEAVESADLILSVGALLSDFNTGSFSYSYKTKNIVEFHSDHMKIRNATFPGVQMKFVLQKLLTTIADAAKGYKPVAVPARTPANAAVPASTPLKQEWMWNQLGNFLQEGDVVIAETGTSAFGINQTTFPNNTYGISQVLWGSIGFTTGATLGAAFAAEEIDPKKRVILFIGDGSLQLTVQEISTMIRWGLKPYLFVLNNDGYTIEKLIHGPKAQYNEIQGWDHLSLLPTFGAKDYETHRVATTGEWDKLTQDKSFNDNSKIRMIEIMLPVFDAPQNLVEQAKLTAATNAKQ
B2: E477Q: variant at the indicated position of YPDC (protein, UniProt P06169 2-563, looked up, variant E477Q)
Pyruvate decarboxylase …: B1 Pyruvate decarboxylase … with D50E, E476Q
B3: E91D: variant at the indicated position of YPDC (protein, UniProt P06169 2-563, looked up, variant E91D)
Pyruvate decarboxylase …: B1 Pyruvate decarboxylase … with D50E, E90D
B4: C221E/C222A: double-mutant of YPDC with a substitution at the neighboring Cys222; permanently activated form (protein, UniProt P06169 2-563, looked up, variant C221E C222A)
Pyruvate decarboxylase …: B1 Pyruvate decarboxylase … with D50E, C220E, C221A
B5: YPDC: wild type yeast pyruvate decarboxylase (EC 4.1.1.1) isolated from Saccharomyces cerevisiae (protein, UniProt P06169 2-563, looked up)
Pyruvate decarboxylase …: B1 Pyruvate decarboxylase … with D50E
B6: E51N: variant at the indicated position of YPDC (protein, UniProt P06169 2-563, looked up, variant E51N)
Pyruvate decarboxylase …: B1 Pyruvate decarboxylase … with D50N
B7: E51Q: variant at the indicated position of YPDC (protein, UniProt P06169 2-563, looked up, variant E51Q)
Pyruvate decarboxylase …: B1 Pyruvate decarboxylase … with D50Q
B8: E51A: variant at the indicated position of YPDC (protein, UniProt P06169 2-563, looked up, variant E51A)
Pyruvate decarboxylase …: B1 Pyruvate decarboxylase … with D50A
B9: D28A: variant at the indicated position of YPDC (protein, UniProt P06169 2-563, looked up, variant D28A)
Pyruvate decarboxylase …: B1 Pyruvate decarboxylase … with D27A, D50E

Legend:
[1] = tested on: yeast pyruvate decarboxylase (YPDC); experiment: YPDC assay coupled to alcohol dehydrogenase/NADH; format: biochemical, Saccharomyces cerevisiae; details: pyruvate as substrate; for kcat / subunit: per subunit; for kcat / subunit / S0.5: pH 6.0, 30 °C
[2] = tested on: yeast pyruvate decarboxylase (YPDC); details: cited from earlier work; for S0.5: pyruvate as substrate
[3] = tested on: yeast pyruvate decarboxylase (YPDC); format: biochemical, Saccharomyces cerevisiae; details: 40 mM pyruvate in syringe, 10 °C, pH 6.0
[4] = tested on: yeast pyruvate decarboxylase (YPDC); details: reaction with pyruvate; cited from earlier work

| Molecule | kcat / subunit [1] [s⁻¹] | decrease in kcat as compared to YPDC [1] | S0.5 [1] [mM] | S0.5 [2] | reduction in activity compared to YPDC [2] | rate constant of accumulation of IP tautomer (LThDP), CD signal at 313 nm [3] [s⁻¹] | k′2 (net forward rate constant of LThDP formation) [4] [s⁻¹] |
| --- | --- | --- | --- | --- | --- | --- | --- |
| B1 | 0.049 | 1000 fold | 23.1 ± 1.3 |  |  |  |  |
| B2 | 0.086 |  |  | 3.02 ± 0.22 ^b mM |  |  |  |
| B3 | 11 |  |  | 1.79 ± 0.22 ^c mM |  |  |  |
| B4 | 18.2 |  |  | 1.47 ± 0.04 ^d mM | 2–5 fold |  |  |
| B5 | 60 |  | 1.1 ± 0.2 |  |  | 312 | 294 ± 20 |
| B6 | 0.0024 | 10,000 fold | 31.5 ± 12 |  |  |  |  |
| B7 | 0.035 |  | 14.9 ± 1.3 |  |  |  |  |
| B8 | 0.0043 | 10,000 fold | 0.72 ± 0.1 |  |  |  |  |
| B9 | 0.066 |  |  | 1.66 ± 0.25 ^b mM |  |  |  |
